Results published in patent US20230357348A1 (AstraZeneca / MedImmune, published 2023).
Starred links: 1 amine or outer side, 2 acyl side, 3 side chain; linkers in the order of their positions; H or OH if unused. Non-standard residues stand in square brackets, D forms with d. Groups on a side chain read outwards from the residue. No end group written: not given here. *: point of attachment. PEG12 = NCCOCCOCCOCCOCCOCCOCCOCCOCCOCCOCCOCCOCCC(=O)O; C18 diacid = O=C(O)CCCCCCCCCCCCCCCCC(=O)*; PEG8 = NCCOCCOCCOCCOCCOCCOCCOCCOCCC(=O)O; Dip = N[C@H](C(=O)O)C(c1ccccc1)c1ccccc1; γGlu = O=C(O)[C@H](CCC(=O)[*:2])N[*:1]; Stearoyl = CCCCCCCCCCCCCCCCCC(=O)*; αMeF = C[C@](N)(Cc1ccccc1)C(=O)O; (PEG)2 = polyethylene glycol 2; PEG4 = NCCOCCOCCOCCOCCC(=O)O; AEEA = NCCOCCOCC(=O)O; Aib = CC(C)(N)C(=O)O

Columns and labels:
[1] = molecular target: human glucagon receptor (hGCGR) (human, UniProt P47871 26-477); experiment: cell-based or functional assay
[2] = molecular target: human GLP-1 receptor (hGLP-1R) (human, UniProt P43220 24-463); experiment: cell-based or functional assay

Sequence of human glucagon receptor (hGCGR) (P47871 26-477): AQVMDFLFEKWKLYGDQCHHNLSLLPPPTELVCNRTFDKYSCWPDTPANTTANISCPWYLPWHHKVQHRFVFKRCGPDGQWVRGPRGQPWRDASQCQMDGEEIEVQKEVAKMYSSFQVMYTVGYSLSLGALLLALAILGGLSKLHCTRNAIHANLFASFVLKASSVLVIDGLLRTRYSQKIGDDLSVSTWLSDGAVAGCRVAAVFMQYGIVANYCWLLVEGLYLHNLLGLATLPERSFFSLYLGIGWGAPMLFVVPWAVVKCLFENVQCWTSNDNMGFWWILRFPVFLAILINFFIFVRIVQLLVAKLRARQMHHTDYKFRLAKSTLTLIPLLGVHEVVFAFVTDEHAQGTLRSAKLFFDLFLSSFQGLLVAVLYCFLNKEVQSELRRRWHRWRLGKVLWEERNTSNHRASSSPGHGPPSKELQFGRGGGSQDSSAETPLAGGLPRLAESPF

Binder	hGluc-R EC50 (pM) [1] [pM]	hGLP-1R EC50 (pM) [2] [pM]
HSQGS[αMeF]TSDVSK[Dip]LDSK([(PEG)2-(PEG)2-γGlu-γGlu-Stearoyl])AAQD[αMeF]VQ[Dip]LEA-NH2 [Peptide 55]	19.1	18.8
H[Aib]HGS[αMeF]TSDVSK[αMeF]LDSK([AEEA-AEEA-γGlu-C18 diacid])AAQD[αMeF]VEWIAN-NH2 (N-terminus assumed; SMILES CC[C@H](C)[C@H](NC(=O)[C@H](Cc1c[nH]c2ccccc12)NC(=O)[C@H](CCC(=O)O)NC(=O)[C@@H](NC(=O)[C@](C)(Cc1ccccc1)NC(=O)[C@H](CC(=O)O)NC(=O)[C@H](CCC(N)=O)NC(=O)[C@H](C)NC(=O)[C@H](C)NC(=O)[C@H](CCCCNC(=O)COCCOCCNC(=O)COCCOCCNC(=O)CC[C@H](NC(=O)CCCCCCCCCCCCCCCCC(=O)O)C(=O)O)NC(=O)[C@H](CO)NC(=O)[C@H](CC(=O)O)NC(=O)[C@H](CC(C)C)NC(=O)[C@](C)(Cc1ccccc1)NC(=O)[C@H](CCCCN)NC(=O)[C@H](CO)NC(=O)[C@@H](NC(=O)[C@H](CC(=O)O)NC(=O)[C@H](CO)NC(=O)[C@@H](NC(=O)[C@](C)(Cc1ccccc1)NC(=O)[C@H](CO)NC(=O)CNC(=O)[C@H](Cc1c[nH]cn1)NC(=O)C(C)(C)NC(=O)[C@@H](N)Cc1c[nH]cn1)[C@@H](C)O)C(C)C)C(C)C)C(=O)N[C@@H](C)C(=O)N[C@@H](CC(N)=O)C(N)=O) [Peptide 6]	516	568
H[Aib]HGS[αMeF]TSDVSK[αMeF]LDSK([γGlu-C18 diacid])AAQD[αMeF]VEWIANT-NH2 (N-terminus assumed; SMILES CC[C@H](C)[C@H](NC(=O)[C@H](Cc1c[nH]c2ccccc12)NC(=O)[C@H](CCC(=O)O)NC(=O)[C@@H](NC(=O)[C@](C)(Cc1ccccc1)NC(=O)[C@H](CC(=O)O)NC(=O)[C@H](CCC(N)=O)NC(=O)[C@H](C)NC(=O)[C@H](C)NC(=O)[C@H](CCCCNC(=O)CC[C@H](NC(=O)CCCCCCCCCCCCCCCCC(=O)O)C(=O)O)NC(=O)[C@H](CO)NC(=O)[C@H](CC(=O)O)NC(=O)[C@H](CC(C)C)NC(=O)[C@](C)(Cc1ccccc1)NC(=O)[C@H](CCCCN)NC(=O)[C@H](CO)NC(=O)[C@@H](NC(=O)[C@H](CC(=O)O)NC(=O)[C@H](CO)NC(=O)[C@@H](NC(=O)[C@](C)(Cc1ccccc1)NC(=O)[C@H](CO)NC(=O)CNC(=O)[C@H](Cc1c[nH]cn1)NC(=O)C(C)(C)NC(=O)[C@@H](N)Cc1c[nH]cn1)[C@@H](C)O)C(C)C)C(C)C)C(=O)N[C@@H](C)C(=O)N[C@@H](CC(N)=O)C(=O)N[C@H](C(N)=O)[C@@H](C)O) [Peptide 7]	30.7	84.6

Now from value to binder:

hGluc-R EC50 (pM) [1] [pM]	hGLP-1R EC50 (pM) [2] [pM]	Binder
16.9	9.09	HSQGS[αMeF]TSDVSK[Dip]LDSK([PEG8-γGlu-γGlu-Stearoyl])AAQD[αMeF]VE[Aib]IINT-NH2 (N-terminus assumed; SMILES CCCCCCCCCCCCCCCCCC(=O)N[C@@H](CCC(=O)N[C@@H](CCC(=O)NCCOCCOCCOCCOCCOCCOCCOCCOCCC(=O)NCCCC[C@H](NC(=O)[C@H](CO)NC(=O)[C@H](CC(=O)O)NC(=O)[C@H](CC(C)C)NC(=O)[C@@H](NC(=O)[C@H](CCCCN)NC(=O)[C@H](CO)NC(=O)[C@@H](NC(=O)[C@H](CC(=O)O)NC(=O)[C@H](CO)NC(=O)[C@@H](NC(=O)[C@](C)(Cc1ccccc1)NC(=O)[C@H](CO)NC(=O)CNC(=O)[C@H](CCC(N)=O)NC(=O)[C@H](CO)NC(=O)[C@@H](N)Cc1c[nH]cn1)[C@@H](C)O)C(C)C)C(c1ccccc1)c1ccccc1)C(=O)N[C@@H](C)C(=O)N[C@@H](C)C(=O)N[C@@H](CCC(N)=O)C(=O)N[C@@H](CC(=O)O)C(=O)N[C@@](C)(Cc1ccccc1)C(=O)N[C@H](C(=O)N[C@@H](CCC(=O)O)C(=O)NC(C)(C)C(=O)N[C@H](C(=O)N[C@H](C(=O)N[C@@H](CC(N)=O)C(=O)N[C@H](C(N)=O)[C@@H](C)O)[C@@H](C)CC)[C@@H](C)CC)C(C)C)C(=O)O)C(=O)O) [Peptide 57]
10.9	4.86	HSQGS[αMeF]TSDVSK[Dip]LDSK([PEG4-γGlu-γGlu-Stearoyl])AAQD[αMeF]VE[Aib]IINT-NH2 (N-terminus assumed; SMILES CCCCCCCCCCCCCCCCCC(=O)N[C@@H](CCC(=O)N[C@@H](CCC(=O)NCCOCCOCCOCCOCCC(=O)NCCCC[C@H](NC(=O)[C@H](CO)NC(=O)[C@H](CC(=O)O)NC(=O)[C@H](CC(C)C)NC(=O)[C@@H](NC(=O)[C@H](CCCCN)NC(=O)[C@H](CO)NC(=O)[C@@H](NC(=O)[C@H](CC(=O)O)NC(=O)[C@H](CO)NC(=O)[C@@H](NC(=O)[C@](C)(Cc1ccccc1)NC(=O)[C@H](CO)NC(=O)CNC(=O)[C@H](CCC(N)=O)NC(=O)[C@H](CO)NC(=O)[C@@H](N)Cc1c[nH]cn1)[C@@H](C)O)C(C)C)C(c1ccccc1)c1ccccc1)C(=O)N[C@@H](C)C(=O)N[C@@H](C)C(=O)N[C@@H](CCC(N)=O)C(=O)N[C@@H](CC(=O)O)C(=O)N[C@@](C)(Cc1ccccc1)C(=O)N[C@H](C(=O)N[C@@H](CCC(=O)O)C(=O)NC(C)(C)C(=O)N[C@H](C(=O)N[C@H](C(=O)N[C@@H](CC(N)=O)C(=O)N[C@H](C(N)=O)[C@@H](C)O)[C@@H](C)CC)[C@@H](C)CC)C(C)C)C(=O)O)C(=O)O) [Peptide 56]
28.4	6.18	HSQGS[αMeF]TSDVSK[Dip]LDSK([γGlu-γGlu-(PEG)2-(PEG)2-Stearoyl])AAQD[αMeF]VE[Aib]IINT-NH2 [Peptide 59]
21.1	5.16	HSQGS[αMeF]TSDVSK[Dip]LDSK([γGlu-(PEG)2-γGlu-(PEG)2-Stearoyl])AAQD[αMeF]VE[Aib]IINT-NH2 [Peptide 60]
11.3	3.9	HSQGS[αMeF]TSDVSK[Dip]LDSK([PEG12-γGlu-γGlu-Stearoyl])AAQD[αMeF]VE[Aib]IINT-NH2 (N-terminus assumed; SMILES CCCCCCCCCCCCCCCCCC(=O)N[C@@H](CCC(=O)N[C@@H](CCC(=O)NCCOCCOCCOCCOCCOCCOCCOCCOCCOCCOCCOCCOCCC(=O)NCCCC[C@H](NC(=O)[C@H](CO)NC(=O)[C@H](CC(=O)O)NC(=O)[C@H](CC(C)C)NC(=O)[C@@H](NC(=O)[C@H](CCCCN)NC(=O)[C@H](CO)NC(=O)[C@@H](NC(=O)[C@H](CC(=O)O)NC(=O)[C@H](CO)NC(=O)[C@@H](NC(=O)[C@](C)(Cc1ccccc1)NC(=O)[C@H](CO)NC(=O)CNC(=O)[C@H](CCC(N)=O)NC(=O)[C@H](CO)NC(=O)[C@@H](N)Cc1c[nH]cn1)[C@@H](C)O)C(C)C)C(c1ccccc1)c1ccccc1)C(=O)N[C@@H](C)C(=O)N[C@@H](C)C(=O)N[C@@H](CCC(N)=O)C(=O)N[C@@H](CC(=O)O)C(=O)N[C@@](C)(Cc1ccccc1)C(=O)N[C@H](C(=O)N[C@@H](CCC(=O)O)C(=O)NC(C)(C)C(=O)N[C@H](C(=O)N[C@H](C(=O)N[C@@H](CC(N)=O)C(=O)N[C@H](C(N)=O)[C@@H](C)O)[C@@H](C)CC)[C@@H](C)CC)C(C)C)C(=O)O)C(=O)O) [Peptide 58]
